The values below come from patent US20200102389A1 (Hoffmann-La Roche, published 2020).

Test [1] addresses T1, modified human HLA-G β2M MHC class I complex (HLA-G specific amino acids replaced by HLA-A consensus amino … (human)).
T1 construct: also called degrafted HLA-G
In words: SPR (Biacore T200), antibody captured, HLA-G complex injected. Background: SPR reads the build-up and loss of mass on a sensor chip optically.

Test [2] deals with T2, recombinant soluble human HLA-G β2M MHC class I complex, dimer (human).
T2 construct: also called HLA-G Dimer; fraction A9
In words: competition ELISA, immobilised HLA-G dimer, antibody titrated, competitor c-myc ILT4. Here is the method: The ELISA was set up by coating the biotinylated antigen wt HLA-G to strepdavidin plates. After incubation and washing steps, the respective antibodies were bound in a concentration range from 8-0 μg in 1:3 dilution steps. C-myc tagged ILT-2 or -4 receptor was added to the HLA-G-antibody complexes. After incubation and washing steps, detection of bound receptor was carried out by anti-cmyc-antibody-POD conjugates. IC50 values were determined from the resulting inhibition curves at the antibody concentrations generating the half-maximal inhibition. In case of the non-biotinylated HLA-G dimer and trimer antigens, immobilization was carried out by random coating on assay plates.
On the technique in general: An ELISA detects its analyte on a solid surface through an enzyme-linked reagent.

B1: HLA-G-0032 (antibody, V domains shown)
VH: QVQLQQSGAELVKPGSSVKISCKASGYSFPSYDMHWIKQQPGNGLEWIGWIYPGNGNTKYNQKFNGKASLTADKSSSTAYMQLSSLTSEDSAVYFCAKPTVATRYNWFAYWGQGTLVTVSS
VL: QIVLTQSPALMSASPGEKVTMTCSASSSVNYMHWYQQKPRSSPKPWIYLTSNLASGVPARFSGSGSGTSYSLTISTMEAEDAATYYCQQWSSNLPITFGSGTKLEIK
In general, IC50 refers to the concentration that inhibits the measured activity by half. On to B1, for which the binding result in test [1] is “no binding (tested: 2.5 up to 800 nM)”. Besides, the IC50 in test [2] is 50.3 nM.

B2: HLA-G-0033 (antibody, V domains shown)
VH: EVQLVETGGGLVQSGRSLKLSCVASGFTFNDYWMTWTRQAPGKGLEWVASITNSGGRTYYLDSVRGRFTISRDDAQNTLYLQMNSLRSEDTATYYCTKERIYLTAYWFFDFWGPGTMVTVSS
VL: DTILTQSPALAVSPGERVTISCRASESVSTLIHWYQQKPGQRPKLLIYLASHLESGVPARFSGSGSGTDFTLTIDPVEADDTATYYCQQSWNEPRTFGGGTKLELK
For B2, the IC50 in test [2] turned out to be 31.3 nM.
